The target of the assay is SARS-CoV-2 Spike protein S1 (SARS-CoV-2) (UniProt P0DTC2). The assay can be described thus: BLI.

Consider 1 substance from doi:10.1101/2020.12.29.424682.

For “peptide … (sequence 24-42 of the ACE2 α1 domain)”, the IC50 (commonly the concentration at which inhibition is half-maximal) turned out to be 700 nM and the peptide concentration of half effect on koff of the S1-ACE2 complex was 0.6 µM.
